Reference: PMC11723951

Molecular target: CBX5^MBD chimera (CBX5 in which the chromodomain was replaced by the MeCP2 methyl-DNA binding domain) (UniProt P51608)

KMT5C heterochromatin retention domain (HRD), wild type, fluorescent fusion (domain or fragment)
chromocenter partition coefficient of the HRD in Suv39h1/2 null MEFs upon CBX5^MBD co-expression (1.33 without it; 11.54 in wild-type cells), live-cell imaging: 4.43
